From US20060210973A1

Target: HA-TrioGEFD2 (pMTHA-TrioGEFD2) (UniProt O75962)
Assay: cell-based or functional assay

percentage of co-transfected PC12 cells with neurites after NGF: 16%
Substance: GFP alone
